Source: patent publication US20140044730A1 (Regeneron, published 2014)

B1: VH-D106H/VK-L30H (antibody, IgG4, V domains shown)
VH: EMQLVESGGGLVQPGGSLRLSCAASGFTFSSHWMKWVRQAPGKGLEWVANINQDGSEKYYVDSVKGRFTISRDNAKNSLFLQMNSLRAEDTAVYYCARDIVLMVYHMDYYYYGMDVWGQGTTVTVSS
VL: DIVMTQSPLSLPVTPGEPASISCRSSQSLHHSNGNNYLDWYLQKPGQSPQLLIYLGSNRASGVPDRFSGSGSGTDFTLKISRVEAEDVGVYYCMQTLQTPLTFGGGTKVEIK
notes: double His variant of 300N; also called VH-D106/VK-L30H; VH-D016H/VK-L30H
B2: 316P(v1) (antibody, IgG1, V domains shown)
VH: EVQLVESGGGLVQPGGSLRLSCAASGFTFNNYAMNWVRQAPGKGLDWVSTISGSGGTTNYADSVKGRFIISRDSSKHTLYLQMNSLRAEDTAVYYCAKDSNWGNFDLWGRGTLVTVSS
VL: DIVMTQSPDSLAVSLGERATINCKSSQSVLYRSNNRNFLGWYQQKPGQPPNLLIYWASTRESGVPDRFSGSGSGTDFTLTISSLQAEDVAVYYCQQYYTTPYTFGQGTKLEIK
notes: also called 316(v1)

Key:
[1] = biological target: T1, human PCSK9 with a C-terminal myc-myc-hexahistidine tag (human, UniProt Q8NBP7 31-692, limits assumed); experiment: blocking ELISA, hPCSK9-mmH vs coated hLDLR EGFA-hFc; non-blocking at pH 5.75
T1 construct: also called hPCSK9-mmH; hPCSK9-mmh; not shown: C-terminal myc-myc-hexahistidine tag

[2] = biological target: T1, human PCSK9 with a C-terminal …; experiment: SPR 25C, purified mAb captured
Method: (§1) A Biacore CM4 sensor chip was derivatized with a monoclonal mouse anti-human Fc antibody to capture human antibodies. The histidine substitution variant anti-PCSK9 antibodies were captured onto the anti-human Fc sensor surface from culture medium after transient expression in Chinese hamster ovary (CHO) cells. […] Kinetic association (kₐ) and dissociation (kd) rate constants were determined by processing and fitting the data to a 1:1 binding model using Scrubber 2.0 curve fitting software. Binding dissociation equilibrium constants (KD) and dissociative half-lives (t_{1/2}) were calculated from the kinetic rate constants as: KD (M)=kd/kₐ; and t_{1/2} (min)=(In2/(60*kd).
(§2) Also included in these experiments were several control/comparator antibodies. All measurements were taken at 25° C.

[3] = biological target: T1, human PCSK9 with a C-terminal …; experiment: SPR (Biacore), 37 °C; antibody captured on anti-human Fc surface, hPCSK9-mmH injected (3.125-50 nM); association at pH 7.4, dissociation at pH 6.0
Method: (§3) A Biacore CM4 sensor chip was derivatized with a Fab′2 polyclonal anti-human Fc antibody to capture human antibodies. […] Dissociation (kd) rate constants were determined by processing and fitting the data using Scrubber version 2.0 curve fitting software. Dissociative half-lives (t_{1/2}) were calculated from the dissociation rate constants as: t_{1/2} (min)=(In2/kd)/60.

[4] = biological target: T1, human PCSK9 with a C-terminal …; experiment: SPR (Biacore), 37 °C; antibody captured on anti-human Fc surface, hPCSK9-mmH injected (3.125-50 nM); association at pH 7.4, dissociation at pH 5.75
Method: as §3

[5] = biological target: T1, human PCSK9 with a C-terminal …; experiment: blocking ELISA pH 7.2, 500 pM hPCSK9-mmH vs coated hLDLR EGFA-hFc
Method: (§4) Briefly, hLDLR EGFA-hFc was coated at 2 μg/mL in PBS on a 96-well microtiter plate overnight at 4° C. followed by blocking with a solution of 0.5% (w/v) BSA in PBS.
(§5) The equilibrated sample solutions were then transferred to a LDLR EGFA-hFc coated plate.

[6] = biological target: T1, human PCSK9 with a C-terminal …; experiment: blocking ELISA pH 7.2, 500 pM hPCSK9-mmH vs coated hLDLR EGFA-hFc, exp #2
From the text: The equilibrated sample solutions were then transferred to the LDLR EGFA-hFc coated plate prepared as described above.

[7] = biological target: T1, human PCSK9 with a C-terminal …; experiment: SPR (Biacore), 37 °C; antibody captured on anti-human Fc surface, hPCSK9-mmH injected (3.125-50 nM); association at pH 7.4, dissociation at pH 7.4
Method: as §3

[8] = biological target: T1, human PCSK9 with a C-terminal …; experiment: SPR 25C pH 7.4, purified mAb captured
Method: as §1
All measurements were taken at 25° C.

[9] = biological target: T1, human PCSK9 with a C-terminal …; experiment: SPR (Biacore), 37 °C; antibody captured on anti-human Fc surface, hPCSK9-mmH injected (3.125-50 nM); association at pH 7.4, dissociation at pH 7.2
Method: All experiments were carried out at 37° C.
as §3

[10] = biological target: T1, human PCSK9 with a C-terminal …; experiment: SPR 25C pH 6.0, purified mAb captured
Method: as §1, §2

[11] = biological target: T1, human PCSK9 with a C-terminal …; experiment: blocking ELISA pH 5.75, 500 pM hPCSK9-mmH vs coated hLDLR EGFA-hFc
Method: as §4, §5

[12] = biological target: T1, human PCSK9 with a C-terminal …; experiment: SPR (Biacore), 37 °C; antibody captured on anti-human Fc surface, hPCSK9-mmH injected (3.125-50 nM); association at pH 7.4, dissociation at pH 5.75; remark: listed apart in the source
Method: as §3

[13] = biological target: T1, human PCSK9 with a C-terminal …; experiment: cell-based or functional assay
[14] = biological target: recombinant cynomolgus monkey PCSK9 with a C-terminal myc-myc hexahistidine tag (cynomolgus monkey, UniProt A8T662 31-692 (Macaca nemestrina entry), limits assumed); experiment: cell-based or functional assay
[15] = biological target: human PCSK9 with a C-terminal myc-myc hexahistidine tag and a D374Y mutation (human, UniProt Q8NBP7 31-692, limits assumed); experiment: cell-based or functional assay
[16] = biological target: T1, human PCSK9 with a C-terminal …; experiment: blocking ELISA pH 7.2; actual obtained value, below theoretical bottom of the assay
Method: as §4, §5

[17] = biological target: T1, human PCSK9 with a C-terminal …; experiment: SPR (Biacore), 37 °C; antibody captured on anti-human Fc surface, hPCSK9-mmH injected (3.125-50 nM); association at pH 7.4, dissociation at pH 7.2; remark: listed apart in the source
Method: as §3

[18] = biological target: T1, human PCSK9 with a C-terminal …; experiment: SPR (Biacore), 37 °C; antibody captured on anti-human Fc surface, hPCSK9-mmH injected (3.125-50 nM); association at pH 7.4, dissociation at pH 7.4; remark: listed apart in the source
Method: as §3

[19] = biological target: T1, human PCSK9 with a C-terminal …; experiment: blocking ELISA pH 5.75; actual obtained value, below theoretical bottom of the assay
Method: as §4, §5

[20] = biological target: T1, human PCSK9 with a C-terminal …; experiment: cell-based or functional assay; remark: listed apart in the source
[21] = biological target: T1, human PCSK9 with a C-terminal …; experiment: SPR (Biacore), 37 °C; antibody captured on anti-human Fc surface, hPCSK9-mmH injected (3.125-50 nM); association at pH 7.4, dissociation at pH 6.0; remark: listed apart in the source
Method: as §3

[22] = biological target: T1, human PCSK9 with a C-terminal …; experiment: blocking ELISA, hPCSK9-mmH vs coated hLDLR EGFA-hFc
Method: as §4, §5

| Binder | KD ratio pH 6.0/pH 7.4 [2] | ka ratio pH 6.0/pH 7.4 [2] | kd ratio pH 6.0/pH 7.4 [2] | t½ ratio pH 6.0/pH 7.4 [2] | IC50 [5] | Kd [8] | koff [8] | kon [8] | t½ [8] | Kd [10] | koff [10] | kon [10] | t½ [10] | further results |
| --- | --- | --- | --- | --- | --- | --- | --- | --- | --- | --- | --- | --- | --- | --- |
| B1 | 15.7 | 1.79 | 28.4 | 0.04 | 0.354 nM | 2.68 nM | 0.000278 s⁻¹ | 104000 M⁻¹ s⁻¹ | 41.5 min | 42.1 nM | 0.0079 s⁻¹ | 186000 M⁻¹ s⁻¹ | 1.5 min | IC50 ratio (pH 5.75/pH 7.2) [1]: > 500; t½ (dissociative half-life) [3]: 0.2 min; t½ (dissociative half-life) [4]: 0.1 min; IC50 [6]: 0.461 nM; t½ (dissociative half-life) [7]: 8.7 min; t½ (dissociative half-life) [9]: 8.9 min |
| B2 | 0.41 | 1.3 | 0.53 | 1.89 | < 0.125 nM | 0.616 nM | 0.000308 s⁻¹ | 499000 M⁻¹ s⁻¹ | 37.6 min | 0.25 nM | 0.000162 s⁻¹ | 649000 M⁻¹ s⁻¹ | 71.1 min | IC50 [11]: < 0.125 nM; t½ (dissociative half-life) [12]: 27.8 min; IC50, LDL uptake in HepG2 cells, 50 nM hPCSK9-mmH [13]: 7.8 nM; IC50, LDL uptake in HepG2 cells, 50 nM MfPCSK9-mmH [14]: 10.3 nM; IC50, LDL uptake in HepG2 cells, 2 nM hPCSK9-D374Y-mmH [15]: 2 nM; IC50 [16]: 0.064 nM; t½ (dissociative half-life) [17]: 13.8 min; t½ (dissociative half-life) [18]: 7 min; IC50 [19]: 0.113 nM; IC50, LDL uptake in HepG2 cells, 100 nM hPCSK9-mmH [20]: 31 nM; t½ (dissociative half-life) [21]: 13 min; IC50 ratio (pH 5.75/pH 7.2) [22]: 1.8 |
